System: MS2 coat protein
Assay: apparent KD of MS2 coat protein; designed switch direction (-1 OFF switch, 1 ON switch): -1; higher = weaker reporter binding
Summary of the method: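 RNA switches sharing common flanks were transcribed by stalled E. coli RNA polymerase on Illumina chips. A doubling series of SNAP-549-labelled MS2 coat protein, from 0.7 or 1.5 nM to 3 µM, was applied in Tris-HCl pH 7.5 buffer with KCl, MgCl2, BSA, DTT, tRNA and Tween-20. Each step lasted 0.8–1.5 h at the bottom of the series and 10–20 min at the top. Normalised cluster fluorescence was curve-fitted, giving apparent KD as the per-design median over clusters.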

[1] = Eterna round: R95, input ligand: FMN 200 uM
[2] = Eterna round: R95, input ligand: microRNA oligo, concentration not stated
[3] = Eterna round: R95, input ligand: none
[4] = input ligand: microRNA oligo, concentration not stated

| Sequence | apparent KD of MS2 coat protein (input ligand: FMN 200 uM) [nM] | apparent KD of MS2 coat protein (input ligand: none) [nM] | apparent KD of MS2 coat protein [4] [nM] | further results |
| --- | --- | --- | --- | --- |
| AGAUCACGAGGAUAUCCAGUGUAGUACAUGAGGAUCACCCAUGUUGAUCGUGGAUUCUUGGGAGAAGGCGUGGUUG [Eternabot (L2) Solution 100] (Eterna round: R97, puzzle: Exclusion 5) | 237 | 60.6 |  |  |
| AGAUCGUCAGGAUAUACAUGAGGAUCACCCAUGUGUAGUCUAAAUUUGACUACAAUAUGUAGAAGGGACGAUCG [Exclusion 3 (MOD3 of #1 Marzena11)] (Eterna round: R97, puzzle: Exclusion 3) | 98.9 | 42.8 |  |  |
| AGAUGGCGAGGAUAUACAUGAGGAUCACCCAUGUGAAGAAGAAGAGUGAGGAAGAAAAGUAGAAGGCGCUGUCA [Mat - Exclusion 3 - Mod of Salish D30] (puzzle: Exclusion 3) |  |  |  | apparent KD of MS2 coat protein [1]: 137 nM; apparent KD of MS2 coat protein [2]: 45.8 nM; apparent KD of MS2 coat protein [3]: 64.7 nM |
| AGAUGGCGAGGAUAUACAUGAGGAUCACCCAUGUGAAGAAGAAUAGUGAGGAAGAAAAGUAGAAGGCGCUGUCA [Mat - Exclusion 3 - Mod of Salish D32] (puzzle: Exclusion 3) |  |  |  | apparent KD of MS2 coat protein [2]: 49.4 nM |
| AGAUGGCGAGGAUAUACAUGAGGAUCACCCAUGUGAAGAUAAUAAGUGAGGAAGAAAAGUAGAAGGCGCUGUCA [Mat - Exclusion 3 - Mod of Salish D26] (puzzle: Exclusion 3) |  |  |  | apparent KD of MS2 coat protein [1]: 398 nM; apparent KD of MS2 coat protein [2]: 72.6 nM; apparent KD of MS2 coat protein [3]: 70.4 nM |
| AGAUGUAGAUACCGAUCCUACAUGAGGAUCACCCAUGUAGCUAGACGUGCGCGCGUCGCUCGUCAGACUACCAGUAG [salish99_TOv1_r3_092] (puzzle: Sensor v3, turn-off variant 1) |  |  |  | apparent KD of MS2 coat protein [1]: 330 nM; apparent KD of MS2 coat protein [2]: 296 nM; apparent KD of MS2 coat protein [3]: 157 nM |
| AGAUGUAGAUGCCGAUCCUACAUGAGGAUCACCCAUGUAGCUAGACGUGCGGGCGGCGCUCGUCGGACUACCAGUAG [salish99_TOv1_r3_097] (puzzle: Sensor v3, turn-off variant 1) |  |  |  | apparent KD of MS2 coat protein [1]: 78.8 nM; apparent KD of MS2 coat protein [2]: 82.4 nM; apparent KD of MS2 coat protein [3]: 124 nM |
| AGAUUAAAAGUAAGGAUAUGCUUCCGGAAACGGAGGCAGAAGGUACAUGAGGAUCACCCAUGUUAAACUAAUUU [Explosion 5 - Jieux - Brourd's mod of Exclusion 4] (Eterna round: R97, puzzle: Brourd's mod of Exclusion 4) | 21.2 | 15.3 |  |  |
| AGAUUGAAUGAGGAUAUCGUUGCGGGUACGUAGCGAGAAGGCAUGACAUGAGGAUCACCCAUGUAGUGUGGGUU [JR_Ex6_Sub019] (Eterna round: R97, puzzle: Exclusion 6) | 805 | 336 |  |  |
| AGAUUGCAUGAGGAUAUCGUAUUAGAUAUAAUGCGAGAAGGCAUGACAUGAGGAUCACCCAUGUAGUGUUGGGA [JR_Ex6_Sub012] (Eterna round: R97, puzzle: Exclusion 6) | 75.1 | 52.6 |  |  |
| AGCAAGCUUUAAAGAUCCUACAUGAGGAUCACCCAUGUGCUCGUCUUAUAACGUACUGUGACGAAAGUCACGGUACG [JL TOV1 3.33] (Eterna round: R97, puzzle: Sensor, turn-off variant 1) | 357 | 603 |  |  |
| AGCAAGCUUUUAAGAUCCUACAUGAGGAUCACCCAUGUGCUCGUCUUAUAACGUACUGUGACGAAAGUCACGGUACG [JL TOV1 3.32] (Eterna round: R97, puzzle: Sensor, turn-off variant 1) | 253 | 217 |  |  |
| AGCAUCUGAGGAUAUACUGGGUAUGGAAGGCGAAGGGCCAGACAUGAGGAUCACCCAUGUAGAAGGCAGUUUGC [Esenonan] (Eterna round: R96, puzzle: Exclusion 2) | 39.2 | 65.4 | 42 |  |
| AGCAUCUGAGGAUAUACUGGGUAUGGAAGGCGAAGGGCCAGACAUGAGGAUCACCCAUGUAGAAGGCAGUUUGC [Esenonan] (puzzle: Exclusion 2) |  |  |  | apparent KD of MS2 coat protein [2]: 78.4 nM |
| AGCAUGAGAGAGGAUAUGGUCGCCGCAACAUGACCAGAAGGCUCAACAUGAGGAUCACCCAUGUGGCCCGGCUC [Eternabot (L1) Solution 33] (Eterna round: R97, puzzle: Exclusion 6) | 33.2 | 19.5 |  |  |
| AGCCACAGAGGAUAUACAUACAUCCAGUAGCGUAUAUCGCUACAUGAGGAUCACCCAUGUAGAAGGCUGUGGCA [Omei Ex2 BD B23] (Eterna round: R97, puzzle: Exclusion 2) | 86.7 | 18.4 |  |  |
| AGCCUACAUGAGGAUCACCCAUGUCAGGAUAUCUCGCAACGUGUCAAGUUCACGUCGCAGAGAAGGGACUCGGG [Tienberi] (puzzle: Exclusion 1) |  |  |  | apparent KD of MS2 coat protein [2]: 51.9 nM |
| AGCGAGGCAGGAUAUACAUGAGGAUCACCCAUGUGCUUGCAUGGCGUGGGACGUCGAGGUAGAAGGGCCAUGCC [EX3 #70] (Eterna round: R97, puzzle: Exclusion 3) | 87.3 | 52.1 |  |  |

| Sequence | apparent KD of MS2 coat protein (input ligand: FMN 200 uM) [nM] | apparent KD of MS2 coat protein (input ligand: none) [nM] | apparent KD of MS2 coat protein [4] [nM] | further results |
| --- | --- | --- | --- | --- |
| AGCGCCAUCGUGAGAUGGCGUAUUACAUGAGGAUCACCCAUGUAGGAUAUCGAUUGCUUUGCAGUCGAGAAGGACAUGUCCUAG [JL ENG3 3.80 Mod F] (Eterna round: R96, puzzle: Exclusion NG 3) | 38.3 | 27.9 | 23.4 |  |
| AGCGUGUGAGAAGGAUAUCGACCCGAGACAGAUUGAGAAGGUCUCACAUGAGGAUCACCCAUGUGGACAGGGCGAGCUCCAGUC [Eternabot solution 11] (Eterna round: R96, puzzle: Exclusion NG 1) | 28.3 | 23.4 | 14.6 |  |
| AGCUAAAUAGGAUAUGCCCGGGAUAACAUGAGGAUCACCCAUGUGACCGAUUCAUGUCCUGCAGAAGGAUUUGGGA [Mod of ViennaUCT 5 - Jieux - Exclusion 5] (Eterna round: R97, puzzle: Exclusion 5) | 17 | 13 |  |  |
| AGCUAGUCAGGAUAUACGAACAUGUCAAAAGACGUGAAGGGACAUGAGGAUCACCCAUGUAGAAGGGACUAGCC [salish99-Ex2-17] (Eterna round: R96, puzzle: Exclusion 2) |  |  | 23.8 |  |
| AGCUCACAUGAGGAUCACCCAUGUCAGGAUAUCGACUGAACAGCUUCGGCUGUUCAGUCGAGAAGGGACAAUUA [Brourdxlusion 5 - Jieux - Exclusion 1] (Eterna round: R97, puzzle: Exclusion 1) | 182 | 59.7 |  |  |
| AGCUGUGGCCGAGGAUAUACAAUAACGAUGAGUGGAUUACACUCUUCGACAUGAGGAUCACCCAUGUAGAAGGCGGUCUCAGCA [Eli eng2 - 001] (Eterna round: R96, puzzle: Exclusion NG 2) | 41.3 | 18 | 14.6 |  |
| AGCUGUGGCCGAGGAUAUCACGACCGAUGGAAAACCAUCGGAACUCCACAUGAGGAUCACCCAUGUGAGAAGGCGGUCUCAGCA [Eli eng2 - 028] (Eterna round: R96, puzzle: Exclusion NG 2) | 27.3 | 13.4 | 10.2 |  |
| AGCUGUGGCCGAGGAUAUCUAAUAUCCCUAACCGAAAUAUAAUCGGACAUGAGGAUCACCCAUGUAGAGAAGGCGGUCUCAGCA [Eli eng2 - 065] (Eterna round: R96, puzzle: Exclusion NG 2) | 211 | 20.8 | 19.3 |  |
| AGCUGUGGCCGAGGAUAUCUACUAAUCCAAACCGAAAUAUAAUCGGACAUGAGGAUCACCCAUGUAGAGAAGGCGGUCUCAGCA [Eli eng2 - 076] (Eterna round: R96, puzzle: Exclusion NG 2) |  |  | 199 |  |
| AGCUGUGGCCGAGGAUAUCUAUCUCAAAUAACCGAAAUAUAAUCGGACAUGAGGAUCACCCAUGUAGAGAAGGCGGUCUCAGCA [Eli eng2 - 089] (Eterna round: R96, puzzle: Exclusion NG 2) |  |  | 11.4 |  |
| AGCUGUGGCCGAGGAUAUCUGUUCCAUAAAACCGAAAUAUAAUCGGACAUGAGGAUCACCCAUGUAGAGAAGGCGGUCUCAGCA [Eli eng2 - 099] (Eterna round: R96, puzzle: Exclusion NG 2) |  |  | 18.3 |  |
| AGCUGUGGCCGAGGAUAUGACAUGAGGAUCACCCAUGUACAUGAUUAGGCCUGGUAACAGGCUCGUCAGAAGGCGGUCUCAGCA [Eli eng2 - 009] (Eterna round: R96, puzzle: Exclusion NG 2) | 46.2 | 15.9 | 13.6 |  |
| AGGAUGUGAGGAUAUCCAUCCCGCGAAUGCGGGUAAUAAAUGGAGAAGGCACAUGAGGAUCACCCAUGUGAUGA [Laleatus] (Eterna round: R97, puzzle: Exclusion 4) | 978 | 47.8 |  |  |
| AGGAUGUUAGGAUAUCGGAUAUGCUGGAGGAGGUGGAUUUACGAGAAGGAACAUGAGGAUCACCCAUGUUGGAG [JR_Exclu4_Sub047] (puzzle: Exclusion 4) |  |  |  | apparent KD of MS2 coat protein [2]: 20.9 nM |
| AGGCAGCAAGGAUAUACAUAAUUCCUACAAGUCAGCAUAGGACAUGAGGAUCACCCAUGUAGAAGGUGCAAAGA [Soesquma] (puzzle: Exclusion 2) |  |  |  | apparent KD of MS2 coat protein [2]: 24.5 nM |
| AGGCGUGCUGAGGAUAUACUACCGGUUGCGAUAGUAGAAGGUAGCACAUGAGGAUCACCCAUGUGGUCAGAUGC [Bequte] (puzzle: Exclusion 6) |  |  |  | apparent KD of MS2 coat protein [2]: 19.1 nM |
| AGGGAGCGAGGAUAUACAGAGUAAGAAACUACUCCCUCAGUACAUGAGGAUCACCCAUGUAGAAGGCGCCCGAC [EX2 A.2] (Eterna round: R97, puzzle: Exclusion 2) | 33.7 | 20.9 |  |  |

— the supplement of paper PMC9170038
